According to patent US11344606B2, “Parathyroid hormone fusion polypeptide” (University of Sheffield, priority 2017, dated 2022):

B1: 14A2c: PTHss-pp-PTH (1-34)-(g4s)4-PTHrExt-(g4s)4-GHbp, SEQ ID NO: 13 (protein)
chain: MIPAKDMAKVMIVMLAICFLTKSDGKSVKKRSVSEIQLMHNLGKHLNSMERVEWLRKKLQDVHNFGGGGSGGGGSGGGGSGGGGSDDVMTKEEQIFLLHRAQAQCEKRLKEVLQRPASIMESDKGWTSASTSGKPRKDKASGKLYPESEEDKEAPTGSRYRGRPCLPEWDHILCWPLGAPGEVVAVPCPDYIYDFNHKGHAYRRCDRNGSWELVPGHNRTWANYSECVKFLTNETREREVFDRLGGGGSGGGGSGGGGSGGGGSFSGSEATAAILSRAPWSLQSVNPGLKTNSSKEPKFTKCRSPERETFSCHWTDEVHHGTKNLGPIQLFYTRRNTQEWTQEWKECPDYVSAGENSCYFNSSFTSIAIPYCIKLTSNGGTVDEKCFSVDEIVQPDPPIALNWTLLNVSLTGIHADIQVRWEAPRNADIQKGWMVLEYELQYKEVNETKWKMMDPILTTSVPVYSLKVDKEYEVRVRSKQRNSGNYGEFSEVLYVTLPQMSQ
modifications: Fusion proteins
B2: 14A3b: GHss-PTH (1-34)-(g4s)4-PTHrExt-(g4s)4-GHbp, SEQ ID NO: 14 (protein)
chain: MATGSRTSLLLAFGLLCLPWLQEGSASVSEIQLMHNLGKHLNSMERVEWLRKKLQDVHNFGGGGSGGGGSGGGGSGGGGSDDVMTKEEQIFLLHRAQAQCEKRLKEVLQRPASIMESDKGWTSASTSGKPRKDKASGKLYPESEEDKEAPTGSRYRGRPCLPEWDHILCWPLGAPGEVVAVPCPDYIYDFNHKGHAYRRCDRNGSWELVPGHNRTWANYSECVKFLTNETREREVFDRLGGGGSGGGGSGGGGSGGGGSFSGSEATAAILSRAPWSLQSVNPGLKTNSSKEPKFTKCRSPERETFSCHWTDEVHHGTKNLGPIQLFYTRRNTQEWTQEWKECPDYVSAGENSCYFNSSFTSIAIPYCIKLTSNGGTVDEKCFSVDEIVQPDPPIALNWTLLNVSLTGIHADIQVRWEAPRNADIQKGWMVLEYELQYKEVNETKWKMMDPILTTSVPVYSLKVDKEYEVRVRSKQRNSGNYGEFSEVLYVTLPQMSQ
modifications: Fusion proteins

How the values were obtained:
[1] = tested on: UMR-106 cells (PTH responsive cell line); assay: In vitro induction of cAMP in UMR-106 cells (cAMP ELISA); type: cell-based, rat
Description: FIG. 3: In Vitro Bioactivity of 14A1 and 14A2 proteins. Purified proteins were tested for their ability to stimulate cAMP production from the PTH responsive cell line, UMR-106 (rat osteoblastic like cell line). Cells were stimulated for 15 minutes in the presence of test molecules and cAMP levels measured from cell lysates using a cAMP specific Elisa. […] Data is presented as pmol cAMP/ml+/−Standard deviation;
FIG. 29A: In vitro induction of cAMP. […] Cells were lysed and cAMP levels measured using an R & D systems Parameter cAMP Elisa. Data are presented as log pmol cAMP/ml±SD. […] Average of n=1 experiment carried out in duplicate.
Purified proteins were tested for their ability to stimulate cAMP production from the PTH responsive cell line, UMR-106 (rat osteoblastic like cell line). Cells were stimulated for 15 minutes in the presence of test molecules and cAMP levels measured from cell lysates using a cAMP specific Elisa (R&D systems).

[2] = tested on: UMR-106 cells; assay: Dual Luciferase Reporter Assay for cAMP activity (pGL4.29/CRE/Luc2) in UMR-106 cells; type: cell-based, rat; conditions: FIG. 29D
Description: Cells were lysed and Luciferase activity measured using the Promega Dual Luciferase Assay kit. Data are presented as fold induction of control±SD. […] Average of triplicate values. […] Representative of 3 separate experiments.
Cells were lysed and Luciferase activity measured using the Promega Dual Luciferase Assay kit. Data are presented as fold induction of control±SD.
FIG. 29D: Determination of EC50 values for PTH & PTH fusions using the Dual Luciferase Reporter Assay.

[3] = 500 nM PTH fusion, 15 minutes at 37° C./5% CO2, FIG. 29A, n=1 experiment in duplicate

Molecule | cAMP levels (mean±SD) ([1]; 100 nM human PTH 1-34, 15 minutes at 37° C./5% CO2, FIG. 29A) [pmol cAMP/ml] | cAMP levels (mean±SD) [1, 3] [pmol cAMP/ml] | fold by which PTH is more potent than the fusion (EC50 ratio) [2] [fold]
CC[C@H](C)[C@H](NC(=O)[C@H](CCC(=O)O)NC(=O)[C@H](CO)NC(=O)[C@@H](NC(=O)[C@@H](N)CO)C(C)C)C(=O)N[C@@H](CCC(N)=O)C(=O)N[C@@H](CC(C)C)C(=O)N[C@@H](CCSC)C(=O)N[C@@H](Cc1c[nH]cn1)C(=O)N[C@@H](CC(N)=O)C(=O)N[C@@H](CC(C)C)C(=O)NCC(=O)N[C@@H](CCCCN)C(=O)N[C@@H](Cc1c[nH]cn1)C(=O)N[C@@H](CC(C)C)C(=O)N[C@@H](CC(N)=O)C(=O)N[C@@H](CO)C(=O)N[C@@H](CCSC)C(=O)N[C@@H](CCC(=O)O)C(=O)N[C@@H](CCCNC(=N)N)C(=O)N[C@H](C(=O)N[C@@H](CCC(=O)O)C(=O)N[C@@H](Cc1c[nH]c2ccccc12)C(=O)N[C@@H](CC(C)C)C(=O)N[C@@H](CCCNC(=N)N)C(=O)N[C@@H](CCCCN)C(=O)N[C@@H](CCCCN)C(=O)N[C@@H](CC(C)C)C(=O)N[C@@H](CCC(N)=O)C(=O)N[C@@H](CC(=O)O)C(=O)N[C@H](C(=O)N[C@@H](Cc1c[nH]cn1)C(=O)N[C@@H](CC(N)=O)C(=O)N[C@@H](Cc1ccccc1)C(=O)O)C(C)C)C(C)C [PTH 1-34, reference compound] | 2551±186 |  | 
B1 |  | 264±12 | ~18
B2 |  | 25±0.95 | 28
